Source: patent US20200148774A1 (Genentech, published 2020)
Where a chain is given by its changes, count along the chain named. Read-outs that look alike come from different tables or passages of the source. One block for each binder: values may come before it.

Columns and labels:
[1] = target: T1, human CLL-1 on cells (endogenous on HL-60, EOL-1 and other AML cell lines and CD14+ monocytes); recombinant on … (human, UniProt Q5QGZ9 1-265); assay: FACS, stable cell line expressing recombinant hu CLL-1 and AML tumor cell lines
T1 construct: also called 293AD/huCLL-1; tumor-derived CLL-1
T1 sequence: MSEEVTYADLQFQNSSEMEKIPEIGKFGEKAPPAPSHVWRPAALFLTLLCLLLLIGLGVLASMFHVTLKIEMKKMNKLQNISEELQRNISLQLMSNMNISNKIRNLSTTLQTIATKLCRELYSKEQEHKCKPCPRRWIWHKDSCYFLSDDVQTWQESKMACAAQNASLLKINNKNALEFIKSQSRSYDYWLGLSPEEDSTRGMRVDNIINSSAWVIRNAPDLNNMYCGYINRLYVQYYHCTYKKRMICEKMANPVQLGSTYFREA

[2] = target: T2, cynomolgus CLL-1 on cells (recombinant on HEK293AD cells) (cynomolgus monkey); assay: FACS, stable cell line expressing recombinant cyno CLL-1
T2 construct: also called 293AD/cynoCLL-1; 293AD/cynoCLL1
T2 chain: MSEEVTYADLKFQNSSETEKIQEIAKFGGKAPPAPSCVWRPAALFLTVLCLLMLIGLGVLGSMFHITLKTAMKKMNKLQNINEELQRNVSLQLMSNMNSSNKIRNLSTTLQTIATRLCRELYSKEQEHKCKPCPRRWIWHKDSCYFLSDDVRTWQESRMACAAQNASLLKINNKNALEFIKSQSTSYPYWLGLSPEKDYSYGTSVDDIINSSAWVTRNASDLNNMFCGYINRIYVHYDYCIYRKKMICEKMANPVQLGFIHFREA

[3] = target: T3, recombinant cynomolgus CLL-1 extracellular domain (ECD, amino acids 65-265) fused to an N-terminal Flag (cynomolgus monkey); assay: SPR (Biacore T200), IgG captured by anti-human Fc, CLL-1 as analyte
T3 construct: Construct stated for the immunogen; also called CynoCLL-1 Flag; cynoCLL-1
T3 chain: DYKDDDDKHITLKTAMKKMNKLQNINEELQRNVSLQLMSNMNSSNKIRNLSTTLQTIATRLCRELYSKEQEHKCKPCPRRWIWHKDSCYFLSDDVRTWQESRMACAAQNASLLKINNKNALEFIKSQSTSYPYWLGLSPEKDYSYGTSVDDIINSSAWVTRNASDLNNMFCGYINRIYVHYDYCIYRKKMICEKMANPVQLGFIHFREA

[4] = target: T4, recombinant human CLL-1 extracellular domain (ECD, amino acids 65-265) fused to an N-terminal Flag (human, UniProt Q5QGZ9 65-265); assay: as above
T4 construct: The construct and the K244Q SNP are stated for the immunogen; they are not written as a piece; also called huCLL-1-Flag; huCLL-1
T4 chain: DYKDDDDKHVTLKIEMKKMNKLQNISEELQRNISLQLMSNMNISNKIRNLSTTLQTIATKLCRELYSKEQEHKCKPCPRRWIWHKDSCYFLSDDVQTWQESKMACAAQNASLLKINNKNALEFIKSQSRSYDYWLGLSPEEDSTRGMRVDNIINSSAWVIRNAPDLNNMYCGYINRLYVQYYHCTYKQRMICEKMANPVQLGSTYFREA

[5] = target: T4, recombinant human CLL-1 extracellular …; assay: SPR (Biacore T200), IgG captured by anti-human Fc, human CLL-1 as analyte
Procedure: The binding affinity of the antibodies in this section was determined by BIAcore™ T200 Format. Briefly, BIAcore™ research grade CM5 chips were activated with 1-ethyl-3-(3-dimethylaminopropyl) carbodiimide (EDC) and N-hydroxysuccinimide (NHS) reagents according to the supplier's instructions. Goat anti-human Fc IgGs were coupled to the chips to achieve approximately 10,000 response units (RU) in each flow cell. Unreacted coupling groups were blocked with 1M ethanolamine. For kinetics measurements, antibodies were captured to achieve approximately 300 RU. Three-fold serial dilutions of human CLL-1 was injected in HBS-P buffer (0.01M HEPES pH7.4, 0.15M NaCl, 0.005% surfactant P20) at 25° C. with a flow rate of 30 μl/min. Association rates (kon) and dissociation rates (koff) were calculated using a 1:1 Langmuir binding model (BIAcore™ T200 Evaluation Software version 2.0). The equilibrium dissociation constant (Kd) was calculated as the ratio koff/kon.

[6] = target: T1, human CLL-1 on cells (endogenous on …); assay: Scatchard, 293AD/huCLL-1 cells
Procedure: (§1) Competition assay mixtures of 50 μL volume containing a fixed concentration of [1¹²⁵] labeled antibody and decreasing concentrations of serially diluted, unlabeled antibody were placed into 96-well plates. HEK293AD cells stably expressing recombinant hu or cynoCLL-1 or HL-60 tumor cells expressing endogenous CLL-1 were cultured in growth media at 37° C. in 5% CO₂. Cells were detached from the flask using Sigma Cell Dissociation Solution and were washed with binding buffer, which consisted of Dulbecco's Modified Eagle Medium (DMEM) with 1% bovine serum albumin (BSA), […] and 0.1% sodium azide. The washed cells were added to the 96 well plates at a density of 100,000 cells in 0.2 mL of binding buffer. […] The final concentration of the unlabeled antibody in the competition assay ranged from 1000 nM through ten 2-fold dilution steps to a 0 nM buffer-only assay. Competition assays were carried out in triplicate. Competition assays were incubated for 2 hours at room temperature. After the 2-hour incubation, the competition assays were transferred to a Millipore Multiscreen filter plate (Billerica, Mass.) and washed 4 times with binding buffer to separate the free from bound [I¹²⁵] labeled antibody. The filters were counted on a Wallac Wizard 1470 gamma counter (PerkinElmer Life and Analytical Sciences Inc.; Wellesley, Mass.). The binding data was evaluated using NewLigand software (Genentech), which uses the fitting algorithm of Munson and Robard to determine the binding affinity of the antibody (Munson and Robard 1980).

[7] = target: T2, cynomolgus CLL-1 on cells (recombinant …); assay: Scatchard, 293AD/cynoCLL1 cells
Procedure: as §1, with “After the 2-hour incubation, the competition assays were transferred to a Millipore Multiscreen filter plate (Billerica, Mass.) and washed 4 times with binding buffer to separate the free from bound [I¹²⁵] labeled antibody.” left out

[8] = target: T1, human CLL-1 on cells (endogenous on …); assay: Scatchard, EOL-1 cells
[9] = target: T3, recombinant cynomolgus CLL-1 …; assay: SPR (Biacore T200), IgG captured by anti-human Fc, CLL-1 as analyte
[10] = target: T4, recombinant human CLL-1 extracellular …; assay: as above
[11] = target: T1, human CLL-1 on cells (endogenous on …); assay: Scatchard, HL-60 cells
Procedure: as §1, with “After the 2-hour incubation, the competition assays were transferred to a Millipore Multiscreen filter plate (Billerica, Mass.) and washed 4 times with binding buffer to separate the free from bound [I¹²⁵] labeled antibody.” left out

[12] = target: T5, cynoCD3εγ (cynomolgus monkey, UniProt Q95LI5 22-117; Q95LI7 23-113); assay: SPR (Biacore)
T5 construct: also called cynomolgus CD3εγ
T5 sequence (looked up) 1: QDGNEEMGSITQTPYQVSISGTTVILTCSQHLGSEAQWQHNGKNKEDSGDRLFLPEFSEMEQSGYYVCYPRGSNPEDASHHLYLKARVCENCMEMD
T5 sequence (looked up) 2: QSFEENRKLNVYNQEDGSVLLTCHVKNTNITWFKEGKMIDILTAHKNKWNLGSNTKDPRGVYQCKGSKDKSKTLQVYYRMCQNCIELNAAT

[13] = target: T6, hCD3εγ (human, UniProt P07766 23-126; P09693 23-116); assay: SPR (Biacore)
T6 construct: also called human CD3εγ
T6 sequence (P07766 23-126, chain 1 of 2): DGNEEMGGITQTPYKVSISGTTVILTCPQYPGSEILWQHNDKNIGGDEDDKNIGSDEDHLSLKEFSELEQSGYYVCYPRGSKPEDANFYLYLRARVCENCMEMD
T6 sequence (P09693 23-116, chain 2 of 2): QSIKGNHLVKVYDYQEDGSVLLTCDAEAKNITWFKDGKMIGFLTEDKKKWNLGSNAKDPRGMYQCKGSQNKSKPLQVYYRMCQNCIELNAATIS

B2: 21C9.L2H3 (antibody, V domains shown)
VH: EVQLVQSGAEVKKPGASVKVSCKASGYTFTDYYLDWVRQAPGQGLEWIGRVNPYNGGTIYNQKFKGRVTLTRDTSTSTAYLELSSLRSEDTAVYYCARDHYRYDPLLDYWGQGTLVTVSS
VL: DIQMTQSPSSLSASVGDRVTITCKASQDVSTAVAWFQQKPGKAPKLLIYSPSYRYTGVPSRFSGSGSGTDFTLTISSLQPEDFATYYCQQLYSTPYTFGQGTKVEIK
notes: humanized, assessed in the form of an IgG; also called humanized 21C9.L2H3; h21C9
Kd [3]: 9.47 nM | Kd [4]: 11.7 nM | Kd [5]: 9.79 nM | Kd [6]: 3.6 nM | Kd [7]: 2.4 nM | Kd [8]: 0.74 nM | Kd [9]: 9.3 nM | Kd [10]: 15.1 nM

B3: 6E7.L4H1eA54 (antibody, V domains shown)
VH: EVQLVQSGAEVKKPGASVKVSCKASGYSFTDYYMHWVRQAPGQGLEWIGRINPYAGAAFYSQNFKDRVTLTVDTSTSTAYLELSSLRSEDTAVYYCAIERGADLEGYAMDYWGQGTLVTVSS
VL: DIQMTQSPSSLSASVGDRVTITCRASQSVSTSSYNYMHWYQQKPGKPPKLLIKYASNLESGVPSRFSGSGSGTDFTLTISSLQPEDFATYYCQHSWEIPLTFGQGTKVEIK
notes: humanized IgG; also called 6E7.L4H1eN54A; h6E7A
Kd [11]: 0.64 nM | Kd [6]: 0.89 nM | Kd [7]: 0.9 nM | Kd [8]: 0.32 nM | Kd [9]: 3.14 nM | Kd [10]: 3.08 nM

B5: 38E4v1 (antibody, V domains shown)
VH: EVQLVQSGAEVKKPGASVKVSCKASGFTFTSYYIHWVRQAPGQGLEWIGWIYPENDNTKYNEKFKDRVTITADTSTSTAYLELSSLRSEDTAVYYCARDGYSRYYFDYWGQGTLVTVSS
VL: DIVMTQSPDSLAVSLGERATINCKSSQSLLNSRTRKNYLAWYQQKPGQSPKLLIYWTSTRKSGVPDRFSGSGSGTDFTLTISSLQAEDVAVYYCKQSFILRTFGQGTKVEIK
notes: also called h38E4v1
Kd [12]: 0.7 nM | Kd [13]: 0.5 nM

B6: 40G5c (antibody, V domains shown)
VH: B5 VH with F27Y, S31N, E54G, N55D, D56G, D66G, V68A, I70L, G100S, R103N
VL: B5 VL with S49P, T57A, K61E, K95T
notes: also called h40G5c
Kd [12]: 14 nM | Kd [13]: 12 nM

Other lines, results leading:

binding result [1]: binds | binding result [2]: binds
B1: m20B1 (antibody, V domains shown)
VH: EVQLQQSGPELVKPGALVKISCKASGYTFTSYDINWLKQRPGQGLEWIGWIYPGDGTTEYNERFKGKATLTADKSSSTAYLQLSSLTSENSAVYFCARSYDYDYAMDYWGQGTSVTVSS
VL: DIVLTQSPAIMSASPGEKVTMTCSASSSISYMYWYQQKPGTSPKRWIYDTSKLASGVPARFSGSGSGTSYSLTISSMEAEDAATYYCHQRSSWTFGGGTKLEIK
notes: murine monoclonal antibody; also called murine 20B1

binding result [1]: binds | binding result [2]: binds
B4: m28H12 (antibody, V domains shown)
VH: QVQLQQSGAELVKPGASVKLSCTASGFNIKDTYMHWVKQRPEQGLEWIGRIDPANGDTDYDPKFQGKATVTADTSSNTAYLQLSSLTSEDTAVYYCTISGPPYYVMDYWGQGTSVTVSS
VL: DIQMTQSPASLAVSLGQRATISCRASQSVSSSSYSYMHWYQQKPGQPPKLLIKYASNLESGVPARFSGRGSGTDFTLNIHPVEEEDTATYYCQHSWEIPYTFGGGTRLEIK
notes: murine monoclonal antibody; also called murine 28H12
